Laboratory results from US20220298215A1.

Target: glucagon-like peptide 1 (GLP-1) receptor
Assay: cell-based or functional assay

glucagon-like peptide 1 (GLP-1) receptor, sequence (P43220 24-463): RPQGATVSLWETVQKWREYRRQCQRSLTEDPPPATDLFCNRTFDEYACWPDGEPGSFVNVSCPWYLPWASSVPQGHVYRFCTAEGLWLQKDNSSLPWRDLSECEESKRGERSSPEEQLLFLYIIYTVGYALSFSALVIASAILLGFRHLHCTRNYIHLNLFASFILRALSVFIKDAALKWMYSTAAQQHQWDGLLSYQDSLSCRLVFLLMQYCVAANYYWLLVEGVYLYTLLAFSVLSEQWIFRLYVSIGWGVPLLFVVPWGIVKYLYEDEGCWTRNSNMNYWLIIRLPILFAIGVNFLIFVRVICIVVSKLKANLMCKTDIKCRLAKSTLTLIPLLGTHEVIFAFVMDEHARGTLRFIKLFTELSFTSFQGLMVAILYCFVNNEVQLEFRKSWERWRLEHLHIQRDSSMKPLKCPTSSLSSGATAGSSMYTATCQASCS

EC50, CRE-luciferase reporter in HEK293-GLP1R-CRE-Luc cells: 23.7 pM
Substance: Dulaglutide (Fc fusion)
